Experimental findings from patent publication US20120183545A1 (Merck KGaA, published 2012) are described below.

The chains are these.
T1: human CD20 antigen on Daudi lymphoma cells (human) (UniProt P11836)
T1 sequence (looked up): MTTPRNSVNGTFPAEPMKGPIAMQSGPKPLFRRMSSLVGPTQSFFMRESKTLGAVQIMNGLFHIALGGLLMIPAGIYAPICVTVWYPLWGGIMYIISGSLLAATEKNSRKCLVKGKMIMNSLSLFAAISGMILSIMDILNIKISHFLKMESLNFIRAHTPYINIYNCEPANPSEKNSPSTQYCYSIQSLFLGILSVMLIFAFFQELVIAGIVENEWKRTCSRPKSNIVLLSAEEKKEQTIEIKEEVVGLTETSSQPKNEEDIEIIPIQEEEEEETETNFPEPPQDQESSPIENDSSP

B1: Leu16VhY/VkZ (anti-CD20 PC1) (antibody, IgG1, V domains shown)
VH: EVQLQQSGAELKKPGASVKVSCKASGYTFTSYNMHWVKQTPGQGLEWIGAIYPGNGDTSYNQKFKGKTTLTADKSSSTAYMELSSLRSEDTAVYYCARSNYYGSSYWFFDVWGTGTTVTVSS
VL: DIVLTQSPAIITASPGEKVTMTCRASSSVNYMDWYQKKPGSSPKPWIYATSNLASGVPSRFSGSGSGTTYSMTISSLEAEDAATYYCQQWSFNPPTFGGGTKLEIK
notes: Chimeric IgG1/kappa antibody; also called DILeu16; DI-Leu16 antibody; not shown: human kappa light chain constant region
B2: human CD20 antigen on Daudi lymphoma cells (other, UniProt P11836 1-297, looked up)
chain: T1 sequence (looked up)
notes: whole, on cells; also called Bp35

Test [1] addresses IL-2 Rβ on TF-1β cells (UniProt P14784). In words: cell-based or functional assay.
Test [2] addresses high affinity IL-2R on a mouse cell line (CTLL-2) (mouse) (UniProt P01590). In words: cell-based or functional assay.
For test [3], the target named is T1, human CD20 antigen on Daudi lymphoma cells (human). In words: flow cytometry on Daudi cells; antibody at 1.25 g/ml as printed. On the technique in general: Flow cytometry measures light scatter and fluorescence of single cells or particles in a stream.
Test [4] shares this target. In words: flow cytometry on Daudi cells; antibody at 0.625 g/ml as printed.
For test [5] the target is unchanged. In words: flow cytometry on Daudi cells; antibody at 0.313 g/ml as printed.
Test [6] has the same target. Put plainly: flow cytometry on Daudi cells; antibody at 0.156 g/ml as printed.
The target is the same in test [7]. In words: flow cytometry on Daudi cells; antibody at 10 g/ml as printed.
The target is the same in test [8]. Put plainly: flow cytometry on Daudi cells; antibody at 5 g/ml as printed.
Test [9] has the same target. In words: flow cytometry on Daudi cells; antibody at 0.078 g/ml as printed.
Test [10] has the same target. In words: flow cytometry on Daudi cells; antibody at 2.5 g/ml as printed.
Test [11] addresses B2. Put plainly: flow cytometry on Daudi cells, FIG. 6 Panel A. As to the method: FIG. 6 illustrates the anti-CD20 binding activity of CD20-binding polypeptide compositions and immunocytokines (ICs). Human Daudi lymphoma cells were incubated with varying concentrations of polypeptide compositions and ICs and relative binding to the cells was assessed by flow cytometry, as described in Example 2.
(§1) Approximately 10⁶ Daudi cells were used with various concentrations of antibody or antibody-IL2 fusion protein in a 100 μl volume, for each sample tested.

Test [12] deals with T2, Leu16VhY/VkZ-IL2 (anti-CD20 PC2) (human, UniProt P60568 21-153).
T2 construct: Antibody-IL2 fusion (immunocytokine), glycosylated; also called AbVhY/VkZ-IL2; Ab(VhY/VkZ)-IL2; not shown: human kappa light chain constant region
Put plainly: flow cytometry on Daudi cells. The procedure: as §1

high affinity IL-2R on a mouse cell line (CTLL-2) (mouse), sequence (P01590 22-268, chain 1 of 3): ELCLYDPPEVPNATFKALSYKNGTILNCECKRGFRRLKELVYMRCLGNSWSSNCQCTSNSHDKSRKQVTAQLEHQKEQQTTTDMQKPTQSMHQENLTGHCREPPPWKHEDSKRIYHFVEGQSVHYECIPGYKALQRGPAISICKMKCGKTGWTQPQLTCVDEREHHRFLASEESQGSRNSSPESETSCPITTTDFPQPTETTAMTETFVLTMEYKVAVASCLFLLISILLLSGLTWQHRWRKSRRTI
high affinity IL-2R on a mouse cell line (CTLL-2) (mouse), sequence (P16297 27-539, chain 2 of 3, further chain): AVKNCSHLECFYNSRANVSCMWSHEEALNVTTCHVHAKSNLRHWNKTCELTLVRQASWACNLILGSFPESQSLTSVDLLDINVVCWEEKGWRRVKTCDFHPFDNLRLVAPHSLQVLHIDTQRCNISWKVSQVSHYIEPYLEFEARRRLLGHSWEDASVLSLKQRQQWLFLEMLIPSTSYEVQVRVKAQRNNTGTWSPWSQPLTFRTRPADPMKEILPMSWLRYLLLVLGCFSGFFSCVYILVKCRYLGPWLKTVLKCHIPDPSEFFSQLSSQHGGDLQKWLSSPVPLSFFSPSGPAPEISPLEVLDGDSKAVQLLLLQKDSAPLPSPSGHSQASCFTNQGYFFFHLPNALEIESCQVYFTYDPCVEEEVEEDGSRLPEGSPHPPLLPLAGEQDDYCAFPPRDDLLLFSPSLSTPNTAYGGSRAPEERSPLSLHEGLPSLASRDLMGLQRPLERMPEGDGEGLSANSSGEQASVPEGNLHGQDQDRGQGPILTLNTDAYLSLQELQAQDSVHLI
high affinity IL-2R on a mouse cell line (CTLL-2) (mouse), sequence (P34902 23-369, chain 3 of 3, further chain): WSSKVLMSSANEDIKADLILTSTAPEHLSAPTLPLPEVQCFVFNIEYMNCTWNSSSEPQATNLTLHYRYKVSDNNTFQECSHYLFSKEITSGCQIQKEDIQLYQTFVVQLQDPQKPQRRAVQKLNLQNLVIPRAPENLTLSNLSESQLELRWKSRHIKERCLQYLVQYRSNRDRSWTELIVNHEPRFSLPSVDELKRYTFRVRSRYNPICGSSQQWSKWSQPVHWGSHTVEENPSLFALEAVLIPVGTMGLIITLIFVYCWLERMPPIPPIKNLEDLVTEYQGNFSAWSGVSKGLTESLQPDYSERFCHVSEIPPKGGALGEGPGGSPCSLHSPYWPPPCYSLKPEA
IL-2 Rβ on TF-1β cells, sequence (P14784 27-551): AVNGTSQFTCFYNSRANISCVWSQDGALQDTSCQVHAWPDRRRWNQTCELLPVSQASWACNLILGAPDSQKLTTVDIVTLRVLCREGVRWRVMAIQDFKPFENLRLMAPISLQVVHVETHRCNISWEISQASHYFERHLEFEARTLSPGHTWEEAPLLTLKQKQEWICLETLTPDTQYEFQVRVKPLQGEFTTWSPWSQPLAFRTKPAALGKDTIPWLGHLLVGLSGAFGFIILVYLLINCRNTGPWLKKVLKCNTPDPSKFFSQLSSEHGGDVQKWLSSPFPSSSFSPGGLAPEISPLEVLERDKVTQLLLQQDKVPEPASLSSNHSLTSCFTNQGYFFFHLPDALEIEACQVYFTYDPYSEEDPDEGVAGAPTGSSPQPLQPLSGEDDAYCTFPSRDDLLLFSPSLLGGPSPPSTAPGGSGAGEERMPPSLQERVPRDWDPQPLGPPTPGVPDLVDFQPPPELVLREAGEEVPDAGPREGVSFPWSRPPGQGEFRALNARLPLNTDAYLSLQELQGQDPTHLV
T2 sequence (P60568 21-153 limits assumed): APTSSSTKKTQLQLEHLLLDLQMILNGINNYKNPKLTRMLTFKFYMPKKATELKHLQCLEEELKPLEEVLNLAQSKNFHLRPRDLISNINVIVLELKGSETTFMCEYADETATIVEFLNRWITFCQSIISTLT

Consider “KS-IL2, anti-EpCAM antibody fused to human IL-2 at the C-terminus of the antibody heavy chains (from UniProt P60568 21-153)”, for which, in test [1], the TF-1β ED50 is 0.51 ng/mL. For the same molecule, the CTLL-2 ED50 in test [2] is 1.71 ng/mL.
For the molecule 2B8-IL2 fusion protein, the mean fluorescence intensity in test [3] was 369; in [4], 229; in test [5], 147; in [6] it was 85.3; in test [7], 857; in test [8] it was 720. For the same molecule, the mean fluorescence intensity in test [9] is 52.1; in test [10], 513.
As for “human rIL-2 (from UniProt P60568 21-153) (ligand)”, the CTLL-2 ED50 in test [2] came out at 0.65 ng/mL.
Consider B1, for which the binding result in test [11] was “binds”.
For the molecule B2, the binding result in [12] is “binds”.
